Data taken from US6746859.

Columns and labels:
[1] = target: T1, Gly-(Asp4)-Lys-βNA fluorogenic enterokinase substrate
T1 chain: GDDDDK

[2] = target: bovine pancreatic trypsin inhibitor (BPTI, Sigma), P00974
[3] = target: T2, E. coli thioredoxin/human IL-11 fusion protein with enterokinase cleavage spacer, P20809
T2 chain: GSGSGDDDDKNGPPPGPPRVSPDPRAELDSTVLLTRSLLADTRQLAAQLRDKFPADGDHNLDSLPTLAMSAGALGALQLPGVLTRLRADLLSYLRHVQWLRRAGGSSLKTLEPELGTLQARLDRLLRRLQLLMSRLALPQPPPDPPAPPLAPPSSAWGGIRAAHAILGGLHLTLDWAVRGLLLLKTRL

[4] = target: T3, soybean trypsin inhibitor (STI, Sigma), P01070
T3 chain: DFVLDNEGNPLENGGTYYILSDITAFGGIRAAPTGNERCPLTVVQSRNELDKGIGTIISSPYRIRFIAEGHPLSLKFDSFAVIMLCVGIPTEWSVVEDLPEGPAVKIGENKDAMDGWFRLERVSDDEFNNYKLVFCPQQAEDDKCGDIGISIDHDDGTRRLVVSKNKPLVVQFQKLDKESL

B1: CHO-produced recombinant bovine enterokinase catalytic domain (light chain) (protein)
chain: IVGGSDSREGAWPWVVALYFDDQQVCGASLVSRDWLVSAAHCVYGRNMEPSKWKAVLGLHMASNLTSPQIETRLIDQIVINPHYNKRRKNNDIAMMHLEMKVNYTDYIQPICLPEENQVFPPGRICSIAGWGALIYQGSTADVLQEADVPLLSNEKCQQQMPEYNITENMVCAGYEAGGVDSCQGDSGGPLMCQENNRWLLAGVTSFGYQCALPNRPGVYARVPRFTEWIQSFLH
EFFICIENCY OF CLEAVAGE (relative molar activities) (relative molar activity) [1]: 1
cleaving activity toward the fluorogenic enterokinase substrate Gly-(Asp4)-Lys-βNA [2]: This activity was inhibited by the addition of either soybean trypsin inhibitor (STI,Sigma) or bovine pancreatic trypsin inhibitor (BPTI, Sigma)
EFFICIENCY OF CLEAVAGE (relative molar activities) (relative molar activity) (Trypsinogen): 1
EFFICIENCY OF CLEAVAGE (relative molar activities) (relative molar activity) [3]: 25
cleavage of fusion protein (SDS-PAGE) [3]: resulted in total and specific cleavage of this fusion protein into its two component domains (thioredoxin and IL-11)
cleaving activity toward the fluorogenic enterokinase substrate Gly-(Asp4)-Lys-βNA [4]: This activity was inhibited by the addition of either soybean trypsin inhibitor (STI,Sigma) or bovine pancreatic trypsin inhibitor (BPTI, Sigma)
